From patent EP4624486A1 (Guangdong Raynovent Biotech Co., Ltd., dated 2025)
Bridge positions count the residues as written; N and C are the ends. Square brackets hold non-standard residues; d marks the D form. Ends that are not written are not given here. αMeF = C[C@](N)(Cc1ccccc1)C(=O)O; αMeL = CC(C)C[C@](C)(N)C(=O)O; Aib = CC(C)(N)C(=O)O

T1: GIP receptor (GIPR) (UniProt P48546 22-466, limits assumed)
T1 sequence (looked up): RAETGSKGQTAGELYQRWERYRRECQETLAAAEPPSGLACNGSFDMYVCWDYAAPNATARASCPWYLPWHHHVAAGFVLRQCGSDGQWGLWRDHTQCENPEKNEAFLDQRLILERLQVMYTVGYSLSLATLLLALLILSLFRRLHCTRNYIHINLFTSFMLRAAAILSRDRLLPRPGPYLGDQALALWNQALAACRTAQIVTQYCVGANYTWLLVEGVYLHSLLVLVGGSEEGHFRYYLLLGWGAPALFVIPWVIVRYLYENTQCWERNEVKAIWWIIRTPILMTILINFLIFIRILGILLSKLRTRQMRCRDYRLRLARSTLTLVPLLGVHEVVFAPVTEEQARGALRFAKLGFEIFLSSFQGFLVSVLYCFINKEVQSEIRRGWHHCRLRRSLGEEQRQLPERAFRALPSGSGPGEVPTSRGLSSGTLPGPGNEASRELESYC

B1: Example 45 (peptide)
peptide: Y[Aib]QGTFTSDYSI[αMeL]KDKKAQ[Aib]AFIEYLLEGGPSSGAPPPS-NH2
modifications: bridge 14-17; not fully specified (bridges); also: stapled body (lipidated) structure only in drawing chem0251
B2: Example 41 (peptide)
peptide: Y[Aib]QGTFTSDYSI[αMeL]KDKKAQ[Aib]AFIEYLLKGGPSSGAPPPS-NH2
modifications: linker 14-17 via Ida, Lys, Lys, γGlu, C20 diacid; also: further groups not given here
B3: Example 42 (peptide)
peptide: Y[Aib]QGTFTSDYSI[αMeL]KDKKAQ[Aib]AFIQYLLEGGPSSGAPPPS-NH2
modifications: bridge 14-17; not fully specified (bridges); also: stapled body (lipidated) structure only in drawing chem0245
B4: Example 54 (peptide)
peptide: Y[Aib]QGTFTSDYSI[αMeL]KDKKAQ[Aib]AFIEYLLKGGPSSGAPPPS-NH2
modifications: bridge 14-17; not fully specified (bridges); also: stapled body (lipidated) structure only in drawing chem0263
B5: Example 51 (peptide)
peptide: Y[Aib]QGT[αMeF]TSDYSI[αMeL]KDKKAQ[Aib]AFIEYLLKGGPSSGAPPPS-NH2
modifications: bridge 14-17; not fully specified (bridges); also: stapled body (lipidated) structure only in drawing chem0260

How the values were obtained:
Experiment in all cases: cell-based or functional assay
GLP-1 receptor (GLP-1R) [1] = target: GLP-1 receptor (GLP-1R) (UniProt P43220)
Chain of GLP-1 receptor (GLP-1R) (UniProt P43220) (P43220 24-463 limits assumed): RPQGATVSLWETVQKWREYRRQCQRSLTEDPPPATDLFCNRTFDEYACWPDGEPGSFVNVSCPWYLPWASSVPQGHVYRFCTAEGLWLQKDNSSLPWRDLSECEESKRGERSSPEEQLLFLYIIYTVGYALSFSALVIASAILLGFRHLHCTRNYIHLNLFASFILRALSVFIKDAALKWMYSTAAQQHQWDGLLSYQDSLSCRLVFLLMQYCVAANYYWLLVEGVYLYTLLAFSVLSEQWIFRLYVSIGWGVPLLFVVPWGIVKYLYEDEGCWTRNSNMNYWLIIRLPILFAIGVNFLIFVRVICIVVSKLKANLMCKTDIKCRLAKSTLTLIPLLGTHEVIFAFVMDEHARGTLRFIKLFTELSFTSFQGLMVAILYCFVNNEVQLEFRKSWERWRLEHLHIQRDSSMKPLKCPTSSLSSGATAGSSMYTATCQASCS

GIP receptor (GIPR) [2] = target: GIP receptor (GIPR) (UniProt P48546)
GCG receptor (GCGR) [3] = target: GCG receptor (GCGR) (UniProt P47871)
Chain of GCG receptor (GCGR) (UniProt P47871) (P47871 26-477 limits assumed): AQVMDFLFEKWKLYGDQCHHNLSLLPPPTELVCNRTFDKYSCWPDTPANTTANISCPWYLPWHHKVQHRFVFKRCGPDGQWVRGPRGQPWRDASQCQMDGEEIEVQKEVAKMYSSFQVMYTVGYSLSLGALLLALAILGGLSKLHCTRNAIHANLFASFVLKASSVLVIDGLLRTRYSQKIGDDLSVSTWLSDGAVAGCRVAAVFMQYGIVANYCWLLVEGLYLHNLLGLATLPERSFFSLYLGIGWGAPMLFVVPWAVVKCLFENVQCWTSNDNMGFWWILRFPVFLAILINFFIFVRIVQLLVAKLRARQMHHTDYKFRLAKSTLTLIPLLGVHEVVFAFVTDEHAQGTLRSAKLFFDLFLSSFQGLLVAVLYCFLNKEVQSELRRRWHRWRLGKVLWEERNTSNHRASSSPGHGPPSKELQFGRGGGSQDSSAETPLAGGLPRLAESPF

GCG receptor (GCGR) [4] = target: GCG receptor (GCGR) (UniProt P47871 26-477, limits assumed)
Chain of GCG receptor (GCGR) (UniProt P47871 26-477, limits assumed) (P47871 26-477 limits assumed): as above

GLP-1 receptor (GLP-1R) [5] = target: GLP-1 receptor (GLP-1R) (UniProt P43220 24-463, limits assumed)
GIP receptor (GIPR) [6] = target: T1, GIP receptor (GIPR)

Molecule | GLP-1 EC50 (nM); cAMP, agonistic activity (GLP-1 receptor (GLP-1R) [1]) | GIP-1 EC50 (nM); cAMP, agonistic activity (GIP receptor (GIPR) [2]) | GCG EC50 (nM); cAMP, agonistic activity (GCG receptor (GCGR) [3]) | GCG EC50 (nM); cAMP, agonistic activity (GCG receptor (GCGR) [4]) | GLP-1 EC50 (nM); cAMP, agonistic activity (GLP-1 receptor (GLP-1R) [5]) | GIP-1 EC50 (nM); cAMP, agonistic activity (GIP receptor (GIPR) [6])
Human GLP-1 (7-37) (from UniProt P01275 21-180) (ligand) | 0.001 nM | – | – | – | – | –
LY3437943 (peptide) | 0.014 nM | 0.001 nM | 0.031 nM | – | – | –
B1 | – | – | – | 0.029 nM | 0.005 nM | 0.0001 nM
Y[Aib]QGTFTSDYSI[αMeL]KDKKAQ[Aib]AFIEYLLEGGPSSGAPPPS-NH2 (linker 14-17 via (2-2-oxoethyl)‑glycine, AEEA, Lys, γGlu, C20 diacid) [Example 52] | – | – | – | 0.025 nM | 0.003 nM | 0.0001 nM
B2 | – | – | – | 0.015 nM | 0.003 nM | 0.0003 nM
B3 | – | – | – | 0.025 nM | 0.007 nM | 0.0005 nM
B4 | – | – | – | 0.02 nM | 0.002 nM | 0.0004 nM
B5 | – | – | – | 0.025 nM | 0.001 nM | 0.0002 nM
